# Experimental data as given in paper PMC8565817.
# Tests used:
# [1] = target: FPA144-F (the fucosylated version of bemarituzumab) (human); assay: SPR
# Bemarituzumab (human) = assay: SPR
substance,measurement,setting,value
human Fc gamma receptor IIIa (V158),Kd,[1],207 nM
same,Kd,Bemarituzumab (human),9.2 nM
